From patent US20020045591A1, “Methods and therapeutic compositions for treating cancer” (priority 1998, published 2002)

Tests used:
[1] = system: LEF-1-driven transcription; assay: LEF-1 consensus (TOPFLASH) transactivation in 293 cells; assay type: cell-based, human; conditions: FIG. 18B
Description: Cell Culture and Transfections: Canine kidney epithelial cells MDCK, human fibrosarcoma HT1080, 293-T human embryonic kidney cells, Balb/C mouse 3T3 and human colon carcinoma SW480 cell lines were cultured in Dulbecco's modified Eagle's medium supplemented with 10% calf serum (Gibco, Grand Island, N.Y.) at 37° C. in the presence of 7% CO2. The human renal carcinoma cell line KTCTL60 was grown in RPMI medium and 10% calf serum. Cells were transiently transfected with the cDNA constructs described below, using Ca^2+-phosphate or lipofectamine (Gibco) and the expression of the transgene was assessed between 24 and 48 hours after transfection. In some experiments, the expression of the stably transfected NH2 terminus-deleted β-catenin (Δ57) was enhanced in HT1080 cells by overnight treatment with 2 mM sodium butyrate.
A plasmid encoding β-galactosidase (0.5 μg) was cotransfected to enable normalization for transfection efficiency. The relevant plasmid expressing catenin constructs (4.5 μg) was co-transfected with the reporter, or an empty expression vector was included. After 24-48 hours expression of the reporter (luciferase) and the control (β-galactosidase) genes were determined using enzyme assay systems from Promega (Madison, Wis.).

[2] = system: endogenous β-catenin; assay: Double immunofluorescence of endogenous β-catenin in transfected cells; assay type: cell-based; conditions: FIG. 18C
Description: Immunofluorescence Microscopy: Cells cultured on glass coverslips were fixed with 3.7% paraformaldehyde in PBS and permeabilized with 0.5% Triton X-100. Monoclonal antibodies against human plakoglobin (11E4), β-catenin (5H10), the COOH terminus of β-catenin (6F9) and α-catenin (1G5) were described and kindly provided by Drs. M. Wheelock and K. Johnson (Univ. Toledo, Ohio). The secondary antibody was FITC- or Cy3-labeled goat anti mouse IgG (Jackson ImmunoResearch Laboratories, West Grove, Pa.). Polyclonal antiserum against β-catenin, monoclonal antibody against pan cadherin (CH-19), vinculin ([…]) and α-actinin (BM75.2) were from Sigma (Holon, Israel). Monoclonal antibodies against the splicing factor SC35 and the HA epitope were kindly provided by Dr. D. Helfman (CSH Laboratory, N.Y.). Polyclonal rabbit antibody against the VSV-G epitope was a gift from Dr. JC Perriard (ETH, Zurich, Switzerland). FITC-labeled goat anti-rabbit IgG antibody was from Cappel/ICN. Monoclonal antibody against LEF-1 was kindly provided by Dr. R. Grosschedl (Univ. Calif. San Francisco, Calif.). […] Images of the fluorescent cells were recorded with a cooled, scientific grade CCD camera (Photometrics, Tucson, Ariz.). Integrated fluorescent intensities in transfected and nontransfected cells were determined, after the background was subtracted.

B1: plakoglobin: HA-tagged human plakoglobin (protein, UniProt P14923 1-745, looked up)
Junction plakoglobin: MEVMNLMEQPIKVTEWQQTYTYDSGIHSGANTCVPSVSSKGIMEEDEACGRQYTLKKTTTYTQGVPPSQGDLEYQMSTTARAKRVREAMCPGVSGEDSSLLLATQVEGQATNLQRLAEPSQLLKSAIVHLINYQDDAELATRALPELTKLLNDEDPVVVTKAAMIVNQLSKKEASRRALMGSPQLVAAVVRTMQNTSDLDTARCTTSILHNLSHHREGLLAIFKSGGIPALVRMLSSPVESVLFYAITTLHNLLLYQEGAKMAVRLADGLQKMVPLLNKNNPKFLAITTDCLQLLAYGNQESKLIILANGGPQALVQIMRNYSYEKLLWTTSRVLKVLSVCPSNKPAIVEAGGMQALGKHLTSNSPRLVQNCLWTLRNLSDVATKQEGLESVLKILVNQLSVDDVNVLTCATGTLSNLTCNNSKNKTLVTQNSGVEALIHAILRAGDKDDITEPAVCALRHLTSRHPEAEMAQNSVRLNYGIPAIVKLLNQPNQWPLVKATIGLIRNLALCPANHAPLQEAAVIPRLVQLLVKAHQDAQRHVAAGTQQPYTDGVRMEEIVEGCTGALHILARDPMNRMEIFRLNTIPLFVQLLYSSVENIQRVAAGVLCELAQDKEAADAIDAEGASAPLMELLHSRNEGTATYAAAVLFRISEDKNPDYRKRVSVELTNSLFKHDPAAWEAAQSMIPINEPYGDDMDATYRPMYSSDVPLDPLEMHMDMDGDYPIDTYSDGLRPPYPTADHMLA
modifications: HA tag
[1]
  LEF-1-driven transcription, fold lower extent than β-catenin: 3 to 4 fold
[2]
  nuclear translocation of endogenous β-catenin: resulted in nuclear translocation of endogenous β-catenin
